Laboratory results taken from US20250189530A1 (STCUBE, published 2025).

Key:
[1] = target: T1, CILK1 peptide AQPVHGRTDWASKYA; assay: SPR sensorgrams (Response in RU), 15.625, 31.25, 62.5, 125 and 500 nM
T1 construct: also called serine/threonine-protein kinase ICK (CILK) isoform 2 peptide
T1 peptide: AQPVHGRTDWASKYA

[2] = target: T2, BTN1A1 Peptide 4 (human); assay: ELISA, 10X dilution
T2 construct: also called BTN1A1-pep4- WT; Pep4
T2 peptide: EVEVGDRTDWAIGVC

[3] = target: T3, denatured hBTN1A1 ICD (human, UniProt Q13410 270-526); assay: ELISA, 10X dilution
T3 construct: Same protein as hBTN1A1 ICD, denatured before the ELISA; also called hBTN1A1 ICD denatured; Denatured ICD
T3 sequence: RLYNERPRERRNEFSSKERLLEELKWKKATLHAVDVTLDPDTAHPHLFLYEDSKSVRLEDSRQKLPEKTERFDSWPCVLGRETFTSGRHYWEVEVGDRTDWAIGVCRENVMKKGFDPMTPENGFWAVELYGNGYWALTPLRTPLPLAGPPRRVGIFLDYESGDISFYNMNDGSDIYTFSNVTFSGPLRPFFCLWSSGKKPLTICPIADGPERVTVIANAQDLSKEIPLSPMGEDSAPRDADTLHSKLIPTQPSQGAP

[4] = target: T4, hBTN1A1 ICD (human, UniProt Q13410 270-526); assay: ELISA, 10X dilution
T4 sequence: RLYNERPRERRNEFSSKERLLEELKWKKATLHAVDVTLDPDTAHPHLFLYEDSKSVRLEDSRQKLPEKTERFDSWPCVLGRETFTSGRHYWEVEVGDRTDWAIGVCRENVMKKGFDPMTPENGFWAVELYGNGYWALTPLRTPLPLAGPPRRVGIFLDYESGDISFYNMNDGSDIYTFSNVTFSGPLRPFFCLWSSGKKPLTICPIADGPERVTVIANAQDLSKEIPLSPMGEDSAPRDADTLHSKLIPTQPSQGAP

[5] = target: peptide 4 variant E361A expressed by HEK293T cells (human); assay: western blot, HEK293T lysate, antibody 1 ug/ml
[6] = target: peptide 4 variant W370A expressed by HEK293T cells (human); assay: western blot, HEK293T lysate, antibody 1 ug/ml
[7] = target: peptide 4 variant V364A expressed by HEK293T cells (human); assay: western blot, HEK293T lysate, antibody 1 ug/ml
[8] = target: peptide 4 variant C375A expressed by HEK293T cells (human); assay: western blot, HEK293T lysate, antibody 1 ug/ml
[9] = target: peptide 4 variant G373A expressed by HEK293T cells (human); assay: western blot, HEK293T lysate, antibody 1 ug/ml
[10] = target: peptide 4 variant E363A expressed by HEK293T cells (human); assay: western blot, HEK293T lysate, antibody 1 ug/ml
[11] = target: peptide 4 variant D369A expressed by HEK293T cells (human); assay: western blot, HEK293T lysate, antibody 1 ug/ml
[12] = target: peptide 4 variant A371G expressed by HEK293T cells (human); assay: western blot, HEK293T lysate, antibody 1 ug/ml
[13] = target: peptide 4 variant T368A expressed by HEK293T cells (human); assay: western blot, HEK293T lysate, antibody 1 ug/ml
[14] = target: peptide 4 WT expressed by HEK293T cells (human); assay: western blot, HEK293T lysate, antibody 1 ug/ml
[15] = target: T5, BTN1A1 peptide 4 Mutant 8 (T368A) (human); assay: kinetics of peptide on STC43H11-1, separate assay, method not named
T5 construct: The entry already carries the mutation; also called BTN1A1-pep4- Mutant 8
T5 peptide: EVEVGDRADWAIGVC

[16] = target: T6, BTN1A1 peptide 4 Mutant 11 (A371G) (human); assay: as above
T6 construct: The entry already carries the mutation; also called BTN1A1-pep4- Mutant 11
T6 peptide: EVEVGDRTDWGIGVC

[17] = target: T7, BTN1A1 peptide 4 Mutant 12 (I372A) (human); assay: as above
T7 construct: The entry already carries the mutation; also called Mutant 12 (1372A); BTN1A1-pep4- Mutant 12
T7 peptide: EVEVGDRTDWAAGVC

[18] = target: T8, BTN1A1 peptide 4 Mutant 7 (R367A) (human); assay: as above
T8 construct: The entry already carries the mutation; also called BTN1A1-pep4- Mutant 7
T8 peptide: EVEVGDATDWAIGVC

[19] = target: T9, BTN1A1 peptide 4 Mutant 10 (W370A) (human); assay: as above
T9 construct: The entry already carries the mutation; also called BTN1A1-pep4- Mutant 10; mutant peptide #10
T9 peptide: EVEVGDRTDAAIGVC

[20] = target: T2, BTN1A1 Peptide 4; assay: ELISA clone screen, STCube
[21] = target: T3, denatured hBTN1A1 ICD; assay: ELISA clone screen, STCube
[22] = target: T4, hBTN1A1 ICD; assay: ELISA clone screen, STCube
[23] = target: T2, BTN1A1 Peptide 4; assay: ELISA, stock solution
[24] = target: T3, denatured hBTN1A1 ICD; assay: ELISA, stock solution
[25] = target: T4, hBTN1A1 ICD; assay: ELISA, stock solution
[26] = target: T2, BTN1A1 Peptide 4; assay: ELISA clone screen, GenScript
[27] = target: T3, denatured hBTN1A1 ICD; assay: ELISA clone screen, GenScript
[28] = target: T4, hBTN1A1 ICD; assay: ELISA clone screen, GenScript

B1: STC43H11-1 (antibody, V domains shown)
VH: QSLEESGGRLVTPGGSLTLTCTVSGIDLSSYAMGWVRQAPGEGLEWIGSIGTGGGTGYASWAKGRFTISKTSTTVDLKMTSLTASDTATYFCATSNLWGPGTLVTVSS
VL: QVLTQTASPVSAAVGGTVTINCQASQSVYNNNRCSWFQQKPGQPPKRLIYHTSTLDSGVPSRFKGSGSGTQFTLTISDVQCDDAATYYCLGNYDCSRADCAAFGGGTEVVVK
notes: From immunized New Zealand rabbits; IgG heavy chain and Kappa light chain; also called clone #43H11; Clone 43H11
binding result [1]: no binding (tested: 500 nM) | ELISA signal [2]: 2.83 | ELISA signal [3]: 2.9 | ELISA signal [4]: 2.96 | STC43H11-1 Adj. Vol. (Int) [5]: 1.35e+06 | STC43H11-1 Adj. Vol. (Int) [6]: 221000 | STC43H11-1 Adj. Vol. (Int) [7]: 480000 | STC43H11-1 Adj. Vol. (Int) [8]: 4.8e+06 | STC43H11-1 Adj. Vol. (Int) [9]: 19900 | STC43H11-1 Adj. Vol. (Int) [10]: 2.61e+06 | STC43H11-1 Adj. Vol. (Int) [11]: 5470 | STC43H11-1 Adj. Vol. (Int) [12]: 156000 | STC43H11-1 Adj. Vol. (Int) [13]: 374000 | STC43H11-1 Adj. Vol. (Int) [14]: 4.02e+06 | Kd [15]: 1.77 nM | koff [15]: 0.000822 s⁻¹ | kon [15]: 464000 M⁻¹ s⁻¹ | Kd [16]: 1.39 nM | koff [16]: 0.000425 s⁻¹ | kon [16]: 306000 M⁻¹ s⁻¹ | Kd [17]: 10.6 nM | koff [17]: 0.000778 s⁻¹ | kon [17]: 73600 M⁻¹ s⁻¹ | Kd [18]: 0.339 nM | koff [18]: 0.000153 s⁻¹ | kon [18]: 453000 M⁻¹ s⁻¹ | Kd [19]: 4.95 nM | koff [19]: 0.00106 s⁻¹ | kon [19]: 215000 M⁻¹ s⁻¹ | ELISA signal [20]: 0.945 | ELISA signal [21]: 0.111 | ELISA signal [22]: 1.98 | ELISA signal [23]: 2.88 | ELISA signal [24]: 2.87 | ELISA signal [25]: 2.93 | ELISA signal [26]: 0.609 | ELISA signal [27]: 2.27 | ELISA signal [28]: 1.6
